US12629406B2, “Alterations in endothelin receptors following hemorrhage and resuscitation by centhaquin” (MIDWESTERN UNIVERSITY, priority 2018, dated 2026)
*1 amine or outer side, *2 acyl side, *3 side chain or, on linkers, in order; H or OH if unused. Where no end group is shown, it is not given here. Suc = O=C(CCC(=O)[*:2])[*:1]

What was measured:
ETB receptors [1] = biological target: T1, ETB receptors (Homo sapiens, UniProt P24530)
T1 sequence (P24530 27-442): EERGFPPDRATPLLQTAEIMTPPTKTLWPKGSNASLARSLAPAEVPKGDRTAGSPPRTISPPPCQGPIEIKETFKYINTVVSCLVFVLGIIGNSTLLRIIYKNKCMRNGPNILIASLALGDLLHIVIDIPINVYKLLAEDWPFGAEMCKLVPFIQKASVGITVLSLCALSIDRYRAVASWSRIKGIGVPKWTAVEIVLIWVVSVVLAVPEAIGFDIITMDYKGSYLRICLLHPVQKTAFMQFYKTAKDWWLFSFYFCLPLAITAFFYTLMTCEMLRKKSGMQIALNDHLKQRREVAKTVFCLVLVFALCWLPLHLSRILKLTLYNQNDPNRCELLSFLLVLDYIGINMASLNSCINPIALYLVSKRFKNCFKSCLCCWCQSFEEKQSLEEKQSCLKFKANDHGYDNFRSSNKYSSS

ETA receptors = biological target: T2, ETA receptors (Homo sapiens, UniProt P25101); conditions: cited from earlier work
T2 sequence (P25101 21-427): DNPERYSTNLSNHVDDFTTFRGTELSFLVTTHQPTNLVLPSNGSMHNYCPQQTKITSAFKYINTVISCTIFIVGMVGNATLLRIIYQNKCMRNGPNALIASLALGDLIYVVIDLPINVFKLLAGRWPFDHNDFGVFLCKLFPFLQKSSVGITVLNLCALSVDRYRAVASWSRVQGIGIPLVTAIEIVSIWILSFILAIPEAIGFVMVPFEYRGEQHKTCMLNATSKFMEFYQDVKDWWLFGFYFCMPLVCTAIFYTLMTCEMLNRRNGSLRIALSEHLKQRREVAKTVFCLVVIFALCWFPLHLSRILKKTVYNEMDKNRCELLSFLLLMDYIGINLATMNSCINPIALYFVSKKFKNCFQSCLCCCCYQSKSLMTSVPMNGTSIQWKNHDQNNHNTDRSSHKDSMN

ETB receptors [2] = biological target: T1, ETB receptors; conditions: cited from earlier work

analog of ET-1, Suc-Asp-Glu-Glu-Ala-Val-Tyr-Phe-Ala-His-Leu-Asp-Ile-Ile-Trp; potent and specific agonist for the ETB receptors (Suc-DEEAVYFAHLDIIW) [IRL-1620, N-Succinyl-[Glu^9, Ala^11,15] endothelin 1]
selectivity for ETB over ETA receptors (ETB receptors [1]): approximately 120,000 times | Ki (ETA receptors): 1900 nM | Ki (ETB receptors [2]): 0.016 nM
